{"source": "paper PMC9234707", "about": "(2022)"}
{"biological_target": "ACVR2A (Homo sapiens (Human), UniProt P27037)", "sequence (P27037 26-118)": "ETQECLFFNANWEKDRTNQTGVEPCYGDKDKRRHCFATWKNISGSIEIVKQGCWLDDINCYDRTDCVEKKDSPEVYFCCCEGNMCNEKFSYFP", "assay": "SPR, receptor-Fc dimer captured (avidity), single 80 nM injections", "units": {"Kd": "pM"}}
{"binder": "BMP10 (protein) chain 1: AKGNYCKRTPLYIDFKEIGWDSWIIAPPGYEAYECRGVCNYPLAEHLTPTKHAIIQALVHLKNSQKASKACCVPTKLEPISILYLDKGVVTYKFKYEGMAVSECGCR chain 2: AKGNYCKRTPLYIDFKEIGWDSWIIAPPGYEAYECRGVCNYPLAEHLTPTKHAIIQALVHLKNSQKASKACCVPTKLEPISILYLDKGVVTYKFKYEGMAVSECGCR", "Kd": 1000}
{"binder": "ActivinB (protein) chain 1: GLECDGRTNLCCRQQFFIDFRLIGWNDWIIAPTGYYGNYCEGSCPAYLAGVPGSASSFHTAVVNQYRMRGLNPGTVNSCCIPTKLSTMSMLYFDDEYNIVKRDVPNMIVEECGCA chain 2: GLECDGRTNLCCRQQFFIDFRLIGWNDWIIAPTGYYGNYCEGSCPAYLAGVPGSASSFHTAVVNQYRMRGLNPGTVNSCCIPTKLSTMSMLYFDDEYNIVKRDVPNMIVEECGCA", "Kd": 53}
{"binder": "GDF11 (protein) chain 1: GLDCDEHSSESRCCRYPLTVDFEAFGWDWIIAPKRYKANYCSGQCEYMFMQKYPHTHLVQQANPRGSAGPCCTPTKMSPINMLYFNDKQQIIYGKIPGMVVDRCGCS chain 2: GLDCDEHSSESRCCRYPLTVDFEAFGWDWIIAPKRYKANYCSGQCEYMFMQKYPHTHLVQQANPRGSAGPCCTPTKMSPINMLYFNDKQQIIYGKIPGMVVDRCGCS", "Kd": 52}
{"binder": "BMP15 (protein) chain 1: PENNQCSLHPFQISFRQLGWDHWIIAPPFYTPNYCKGTCLRVLRDGLNSPNHAIIQNLINQLVDQSVPRPSCVPYKYVPISVLMIEANGSILYKEYEGMIAESCTCR chain 2: PENNQCSLHPFQISFRQLGWDHWIIAPPFYTPNYCKGTCLRVLRDGLNSPNHAIIQNLINQLVDQSVPRPSCVPYKYVPISVLMIEANGSILYKEYEGMIAESCTCR", "Kd": "> 80000"}
{"binder": "Nodal (protein) chain 1: DRSQLCRKVKFQVDFNLIGWGSWIIYPKQYNAYRCEGECPNPVGEEFHPTNHAYIQSLLKRYQPHRVPSTCCAPVKTKPLSMLYVDNGRVLLDHHKDMIVEECGCL chain 2: DRSQLCRKVKFQVDFNLIGWGSWIIYPKQYNAYRCEGECPNPVGEEFHPTNHAYIQSLLKRYQPHRVPSTCCAPVKTKPLSMLYVDNGRVLLDHHKDMIVEECGCL", "Kd": "> 80000"}
